How the values were obtained:
[1] = test system: cultured ocular epithelial cells; conditions: cultured ocular epithelial cells in vitro; cited from earlier work
[2] = Stability of ocular histatin formulation, determined by mass spectroscopy; format: physicochemical; conditions: 100 μg/mL in commercially-available gel tears lubricating eye drop with 0.25% PEG in aqueous buffered borate salt solution
Method: In some embodiments, the ocular histatin formulation is stable both at room temperature (25° C.) and at 45° C. for at least 90 days.

[3] = molecular target: MMP-9 (Homo sapiens, UniProt P14780); conditions: host protease; according to Gusman; cited from earlier work
[4] = molecular target: T1, MMP-2 (Homo sapiens, UniProt P08253); conditions: host protease; according to Gusman; cited from earlier work
T1 sequence (P08253 110-660): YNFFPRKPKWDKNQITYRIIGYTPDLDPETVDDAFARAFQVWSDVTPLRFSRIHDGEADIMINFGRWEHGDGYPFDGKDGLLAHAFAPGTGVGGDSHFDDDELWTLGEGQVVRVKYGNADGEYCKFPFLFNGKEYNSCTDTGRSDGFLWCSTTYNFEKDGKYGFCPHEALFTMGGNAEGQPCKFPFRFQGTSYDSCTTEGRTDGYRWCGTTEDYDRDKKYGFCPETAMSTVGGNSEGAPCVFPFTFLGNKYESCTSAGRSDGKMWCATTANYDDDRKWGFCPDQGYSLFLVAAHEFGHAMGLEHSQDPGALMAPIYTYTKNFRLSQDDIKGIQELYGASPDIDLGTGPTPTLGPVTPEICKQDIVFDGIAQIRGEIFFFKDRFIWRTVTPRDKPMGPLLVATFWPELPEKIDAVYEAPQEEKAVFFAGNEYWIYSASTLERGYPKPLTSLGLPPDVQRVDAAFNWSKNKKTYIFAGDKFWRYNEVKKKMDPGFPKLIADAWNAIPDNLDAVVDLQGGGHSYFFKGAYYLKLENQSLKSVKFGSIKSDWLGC

Sequence of MMP-9 (P14780 94-707): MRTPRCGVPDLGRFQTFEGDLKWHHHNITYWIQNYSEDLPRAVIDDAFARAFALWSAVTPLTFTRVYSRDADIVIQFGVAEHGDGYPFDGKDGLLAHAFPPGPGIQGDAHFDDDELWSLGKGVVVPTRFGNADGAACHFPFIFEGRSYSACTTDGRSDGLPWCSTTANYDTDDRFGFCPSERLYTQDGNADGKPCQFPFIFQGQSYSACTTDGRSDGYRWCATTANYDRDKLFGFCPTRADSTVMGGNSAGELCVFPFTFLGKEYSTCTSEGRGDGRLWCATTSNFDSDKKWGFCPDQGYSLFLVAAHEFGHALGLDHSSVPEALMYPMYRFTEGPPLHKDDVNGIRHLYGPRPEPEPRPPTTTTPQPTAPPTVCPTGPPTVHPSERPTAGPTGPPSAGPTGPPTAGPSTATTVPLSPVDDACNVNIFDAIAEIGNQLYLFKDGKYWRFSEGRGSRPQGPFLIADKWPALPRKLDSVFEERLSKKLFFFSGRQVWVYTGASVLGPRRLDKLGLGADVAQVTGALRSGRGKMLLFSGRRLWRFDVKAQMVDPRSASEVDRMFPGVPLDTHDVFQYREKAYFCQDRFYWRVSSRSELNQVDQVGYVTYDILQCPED

Substance: Benzalkonium chloride
- cytotoxicity [1]: significant cytotoxicity

Substance: cyclized histatin 1: sortase cyclized histatin (including all of Histatin 1) (GGDSHEKRHHGYRRKFHEKHHSHREFPFYGDYGSNYLYDNLPET; sortase cyclization)
- time found to be stable ([2]; 25° C.): at least 505 days
- time found to be stable ([2]; 45° C.): at least 90 days

Substance: histatin 5: naturally occurring oral salivary peptide; SEQ ID NO: 30 peptide
- inhibition of MMP-9 activity [3]: greatly inhibited
- inhibition of MMP-2 activity [4]: greatly inhibited

Reference: patent US20170224771A1, “HISTATINS AS THERAPEUTIC AGENTS FOR OCULAR SURFACE DISEASE” (RAPID PATHOGEN SCREENING, INC., priority 2014, published 2017)
